For the experiment, the target named is T1, RS1 (retinoschisin), human, recombinant, secreted from Sf21 insect cells (human), O15537.
T1 chain: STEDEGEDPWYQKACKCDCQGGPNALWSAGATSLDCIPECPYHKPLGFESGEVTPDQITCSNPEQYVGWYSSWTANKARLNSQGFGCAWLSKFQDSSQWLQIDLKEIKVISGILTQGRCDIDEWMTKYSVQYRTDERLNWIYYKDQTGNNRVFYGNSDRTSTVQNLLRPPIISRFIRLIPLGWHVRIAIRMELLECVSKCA
Nature of the experiment: negative stain single particle electron microscopy; purified RS1 adsorbed to glow discharged carbon-coated copper grids, stained with 0.75% uranyl formate; 2D classification (SPIDER) and 3D reconstruction (EMAN2, RELION, D8 symmetry enforced). As to conditions: remark: other sources report otherwise.

B1: RS1 (retinoschisin), human, recombinant, secreted from Sf21 insect cells, O15537 24-224 (natural protein)
chain: T1 chain
Regarding B1, the stoichiometry N came to 8.

The values are drawn from publication PMC4728063.
